Measurements reported in US20230021388A1 (VELOSBIO, published 2023).
“And” between values parts separate entries of the source, which are not always exact repeats. Equal values may be shown once.

Assays:
[1] = molecular target: T1, recombinant human ROR1 extracellular domain (human, UniProt Q01973 30-406); assay: ELISA, soluble Fab on coated huROR1-ECD
T1 construct: biotinylated for the filter lifts; also called huROR1-ECD; human ROR1-ECD
Protocol: (§1) The previously described filter lift assay provides a visual, qualitative assessment of antigen binding (Example 1). In order to assess the ROR1 binding activity of Ab1 Fab in a more quantitative fashion, an ELISA assay was developed. A 96-well Costar-3366 plate was coated with 50 μL/well of 1 μg/mL human ROR1-ECD (ACROBiosystems, cat. #RO1-H522y) in PBS overnight at 4° C. The plate was rinsed once with PBS-T and blocked with 100 μL/well of 5% M-P for 1 h at 25° C. Fab samples were serially diluted 3-fold using 5% M-P and 50 μL/well was incubated for 1 h at 25° C. The plate was washed three times with PBS-T and 50 μL/well anti-human kappa, and HRP conjugate (Southern Biotech, cat. #2060-05) diluted 10,000-fold in 5% M-P was added for 1 h at 25° C. In certain assays (extended wash format), the plate was placed in large volumes (up to 1 L) of PBS-T and incubated, with mixing, for 2-5 h prior to the addition of anti-human kappa, HRP conjugate. The plate was washed three times with PBS-T, and developed with 50 μL/well 1-Step Ultra TMB-ELISA (Thermo Scientific, cat. #34028). The reaction was terminated by the addition of 2 N H2504 and the A450 was determined using a Spectramax plate reader.

[2] = molecular target: T1, recombinant human ROR1 extracellular …; assay: ELISA, soluble Fab on coated huROR1-ECD; remark: listed apart in the source
[3] = molecular target: T1, recombinant human ROR1 extracellular …; assay: ELISA, soluble Fab on coated huROR1-ECD; WT control beside variant G27N (…, SEQ ID NO: 15)
Protocol: as §1

human ROR1 on live cells [4] = molecular target: T2, human ROR1 on live cells (human, UniProt Q01973 30-937); assay: flow cytometry on live JeKo-1 cells, Fab detected with anti-HA-PE
T2 construct: ROR1-transfected MEC cells (~56,000 copies/cell) or JeKo-1 cells (~13,000 copies/cell); the cell line is named under assay; also called ROR1-transfected MEC cells; JeKo-1 cells
T2 sequence (Q01973 30-937 limits assumed): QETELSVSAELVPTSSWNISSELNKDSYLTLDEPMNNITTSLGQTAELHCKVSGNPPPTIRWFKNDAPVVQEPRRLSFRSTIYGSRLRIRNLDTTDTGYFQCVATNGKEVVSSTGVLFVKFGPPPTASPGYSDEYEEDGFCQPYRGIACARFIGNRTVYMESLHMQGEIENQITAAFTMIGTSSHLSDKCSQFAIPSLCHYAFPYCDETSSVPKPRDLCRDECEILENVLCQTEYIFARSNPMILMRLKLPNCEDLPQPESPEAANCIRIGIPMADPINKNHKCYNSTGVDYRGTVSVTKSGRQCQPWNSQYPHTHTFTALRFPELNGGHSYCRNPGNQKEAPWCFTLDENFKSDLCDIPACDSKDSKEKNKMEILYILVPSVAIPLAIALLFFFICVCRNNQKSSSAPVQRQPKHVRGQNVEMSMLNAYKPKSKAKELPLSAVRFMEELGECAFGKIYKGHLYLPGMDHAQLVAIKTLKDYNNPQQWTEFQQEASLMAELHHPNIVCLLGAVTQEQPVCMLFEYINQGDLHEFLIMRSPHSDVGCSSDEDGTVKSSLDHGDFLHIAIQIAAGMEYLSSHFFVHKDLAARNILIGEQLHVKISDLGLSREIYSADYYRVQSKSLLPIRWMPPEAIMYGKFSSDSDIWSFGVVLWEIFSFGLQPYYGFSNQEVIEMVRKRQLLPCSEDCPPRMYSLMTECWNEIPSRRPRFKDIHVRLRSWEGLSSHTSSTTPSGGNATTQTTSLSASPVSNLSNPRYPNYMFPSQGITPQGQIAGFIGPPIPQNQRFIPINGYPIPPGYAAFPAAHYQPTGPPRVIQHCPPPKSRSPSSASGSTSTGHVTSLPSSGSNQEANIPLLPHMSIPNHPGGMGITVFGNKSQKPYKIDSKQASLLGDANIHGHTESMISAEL
Protocol: (§2) ROR1 binding was quantitated using flow cytometry and 2.5E5 ROR1-transfected MEC cells or JeKo-1 cells for each concentration of Fab variant. The cells were placed in 50 μL of PBS with 2% FBS. Next, the cells were diluted with an equal volume of 2× stock of the test Fab variant and the cells and antibody were co-incubated on ice for 20 min. The cells were then washed 3 times with 300 μL of FACS buffer and were resuspended in 100 μL of a 70-fold dilution of anti-HA.11-PE conjugate, clone 16B12 (BioLegend, cat. #901517) and incubated on ice with reduced light for 20 min. Subsequently, the cells were washed 3 times with 300 μL of FACS buffer and fixed with 2% paraformaldehyde for 10 min at 25° C. The cells then were washed 2 times with 300 μL of FACS buffer and analyzed on a Miltenyi MACSQuant Analyzer.

[5] = molecular target: T1, recombinant human ROR1 extracellular …; assay: ELISA, soluble Fab on coated huROR1-ECD; remark: listed apart in the source
human ROR1 on live cells [6] = molecular target: T2, human ROR1 on live cells; assay: flow cytometry on live ROR1-transfected MEC cells, Fab detected with anti-HA-PE
Protocol: as §2
Initially, three anti-ROR1 Fab variants, each differing from the parental antibody by a single amino acid, were characterized for binding to human ROR1 using live ROR1-transfected MEC cells. […] The binding profiles of the variants on live ROR1-transfected MEC cells were consistent with the binding profiles obtained using recombinant huROR1-ECD and an ELISA (see Example 3, FIG. 5).

[7] = molecular target: T1, recombinant human ROR1 extracellular …; assay: ELISA with prolonged wash (>1 h in PBS-T): huROR1-ECD coated on the plate, soluble Fab titrated, anti-human kappa-HRP detection
Protocol: as §1, with “The plate was washed three times with PBS-T, and developed with 50 μL/well 1-Step Ultra TMB-ELISA (Thermo Scientific, cat. #34028).” left out
Subsequently, the libraries were screened by capture lift to identify the strongest binding variants. The identity of the variants was determined by DNA sequencing and the relative affinities were characterized using an ELISA (described in Example 2) modified to enable further discrimination between the highest affinity variants. […]

[8] = molecular target: T1, recombinant human ROR1 extracellular …; assay: ELISA with prolonged wash, soluble Fab on coated huROR1-ECD
Protocol: as §1
(§3) Subsequently, the libraries were screened by capture lift to identify the strongest binding variants. The identity of the variants was determined by DNA sequencing and the relative affinities were characterized using an ELISA (described in Example 2) modified to enable further discrimination between the highest affinity variants. Specifically, following the initial incubation with soluble Fab, the plates were washed for a prolonged time (>1 h) in large volumes of PBS-T. The plates were then developed as described in Example 2.

[9] = molecular target: T1, recombinant human ROR1 extracellular …; assay: as above; remark: listed apart in the source
Protocol: as §1, §3

[10] = molecular target: T1, recombinant human ROR1 extracellular …; assay: as above; remark: listed apart in the source
Protocol: as §1, §3

[11] = molecular target: T1, recombinant human ROR1 extracellular …; assay: ELISA: huROR1-ECD coated on the plate, periplasmic scFv in serial dilution, anti-HA-HRP detection; x axis is Log [relative expression], no concentration unit
Protocol: scFv constructs were expressed and isolated from the periplasmic space using the same protocol that was used for Fabs (Example 2). In order to quantitate the relative levels of scFv expression of the three variants, a 96-well Costar-3366 plate was coated with 50 μl/well of 2 μg/mL anti-FLAG-unlabeled (Rockland, cat. #600-401-383) in PBS overnight at 4° C. The plate was washed three times with PBS containing 0.05% Tween 20 (PBS-T) and blocked with 100 μL of 5% M-P. The plate was washed once, then 50 μl/well of sample dilutions was added. Sample dilutions were performed with 5% M-P. The plates were incubated 1 h at 25° C., washed three times with PBS-T, and incubated with 50 μl/well of anti-HA HRP conjugate (Roche, cat. #12013819001), diluted 1,000-fold in 5% M-P for 1 h at 25° C. The plate was washed three times with PBS-T, and developed with 50 μl/well 1-Step Ultra TMB-ELISA (Thermo Scientific, Prod. #34028, Lot #SF2405221). The reaction was terminated by the addition of 2 N H2504 and the A450 was determined using a Spectramax plate reader.
Next, the binding of the isolated scFv variants to huROR1-ECD was assessed by ELISA as described in Example 2. A 96-well Costar-3366 plate was coated with 50 μl/well of 1 μg/mL human ROR-1 (AcroBiosystems, cat. #R01H522Y) in PBS overnight at 4° C. The plate was washed three times with PBS-T and blocked with 100 μL of 5% M-P. The plate was washed once, then 50 μl/well of 2-fold serial dilutions of sample was added. Sample dilutions were performed with 5% M-P. The plates were incubated 1 h at 25° C., washed three times with PBS-T, and incubated with 50 μl/well of anti-HA HRP conjugate (Roche, cat. #12013819001), diluted 1,000-fold in 5% M-P for 1 h at 25° C. […] The reaction was terminated by the addition of 2 N H₂SO₄ and the A450 was determined using a Spectramax plate reader. In order to compare the relative binding strength of the scFv variants, the expression levels as determined using the scFv ELISA described above were normalized to the Ab1 parental construct. […]

human ROR1 on live cells [12] = molecular target: T2, human ROR1 on live cells; assay: flow cytometry on live JeKo-1 cells, scFv detected with anti-HA-PE; x axis is Log [relative scFv expression], no concentration unit

T1 sequence (Q01973 30-406 limits assumed): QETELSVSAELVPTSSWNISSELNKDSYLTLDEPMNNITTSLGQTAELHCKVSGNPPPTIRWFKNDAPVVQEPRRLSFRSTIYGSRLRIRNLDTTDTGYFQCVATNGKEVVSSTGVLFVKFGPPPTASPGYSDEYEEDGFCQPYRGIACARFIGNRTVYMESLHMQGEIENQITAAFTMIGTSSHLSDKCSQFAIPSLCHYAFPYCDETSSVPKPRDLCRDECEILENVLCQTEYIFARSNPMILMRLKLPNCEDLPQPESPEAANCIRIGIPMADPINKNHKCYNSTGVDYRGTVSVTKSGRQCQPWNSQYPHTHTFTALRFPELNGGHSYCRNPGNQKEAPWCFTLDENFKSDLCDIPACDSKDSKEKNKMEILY

Binder	Kd [2]	EC50 (read off the curve) (human ROR1 on live cells [4]) [nM]	binding result [11]	binding result (human ROR1 on live cells [12])	further results
Ab1 Fab (Fab, V domains shown, Soluble Fab from an M13 phage vector in E. coli: VL + kappa constant region, VH + human CH1 + His and HA tags; also called WT; parental Fab) VH: QVQLQESGPGLVKPSQTLSLTCTVSGYAFTAYNIHWVRQAPGQGLEWMGSFDPYDGGSSYNQKFKDRLTISKDTSKNQVVLTMTNMDPVDTATYYCARGWYYFDYWGHGTLVTVSS VL: DIVMTQTPLSLPVTPGEPASISCRASKSISKYLAWYQQKPGQAPRLLIYSGSTLQSGIPPRFSGSGYGTDFTLTINNIESEDAAYYFCQQHDESPYTFGEGTKVEIK	3.2 nM and 6 nM	~10	–	–	Kd [1]: 7 nM; Kd [3]: 3.2 nM; Kd [5]: 3 nM
Ab1 Fab variant H1 T32A (Fab, V domains shown, Fab) VH: QVQLQESGPGLVKPSQTLSLTCTVSGYAFAAYNIHWVRQAPGQGLEWMGSFDPYDGGSSYNQKFKDRLTISKDTSKNQVVLTMTNMDPVDTATYYCARGWYYFDYWGHGTLVTVSS VL: DIVMTQTPLSLPVTPGEPASISCRASKSISKYLAWYQQKPGQAPRLLIYSGSTLQSGIPPRFSGSGYGTDFTLTINNIESEDAAYYFCQQHDESPYTFGEGTKVEIK	1.5 nM	~2	–	–	EC50 (read off the curve) (human ROR1 on live cells [6]): ~0.05 µg/mL; EC50 (read off the curve) [7]: ~3 nM; Kd [8]: 3.6 nM and 1.6 nM and 2.7 nM; Kd [9]: 3 nM and 2.7 nM; Kd [10]: 3 nM; fold increase of binding against Ab1 [5]: ~4 fold
H1 T32A Ab1 scFv (scFv, VH - linker - VL with C-terminal FLAG and HA tags; also called scFv variant H1 T32A; Ab1.1) scFv: QVQLQESGPGLVKPSQTLSLTCTVSGYAFAAYNIHWVRQAPGQGLEWMGSFDPYDGGSSYNQKFKDRLTISKDTSKNQVVLTMTNMDPVDTATYYCARGWYYFDYWGHGTLVTVSSGGGGSGGGGSGGGGSADIVMTQTPLSLPVTPGEPASISCRASKSISKYLAWYQQKPGQAPRLLIYSGSTLQSGIPPRFSGSGYGTDFTLTINNIESEDAAYYFCQQHDESPYTFGEGTKVEIKRDYKDDDDKGKPGSGKPGSGKPGSGKPGSYPYDVPDYAS	–	–	binds	binds	–
Ab1 scFv (scFv, the pelB leader is not part of the entry; also called parental Ab1 scFv; Ab1 parental construct) scFv: QVQLQESGPGLVKPSQTLSLTCTVSGYAFTAYNIHWVRQAPGQGLEWMGSFDPYDGGSSYNQKFKDRLTISKDTSKNQVVLTMTNMDPVDTATYYCARGWYYFDYWGHGTLVTVSSGGGGSGGGGSGGGGSADIVMTQTPLSLPVTPGEPASISCRASKSISKYLAWYQQKPGQAPRLLIYSGSTLQSGIPPRFSGSGYGTDFTLTINNIESEDAAYYFCQQHDESPYTFGEGTKVEIKRDYKDDDDKGKPGSGKPGSGKPGSGKPGSYPYDVPDYAS	–	–	binds	binds	–
H1 T32A/L2 T69R Ab1 scFv (scFv, VH - linker - VL with C-terminal FLAG and HA tags; also called scFv variant H1 T32A+L2 T69R; Ab1.2) scFv: QVQLQESGPGLVKPSQTLSLTCTVSGYAFAAYNIHWVRQAPGQGLEWMGSFDPYDGGSSYNQKFKDRLTISKDTSKNQVVLTMTNMDPVDTATYYCARGWYYFDYWGHGTLVTVSSGGGGSGGGGSGGGGSADIVMTQTPLSLPVTPGEPASISCRASKSISKYLAWYQQKPGQAPRLLIYSGSRLQSGIPPRFSGSGYGTDFTLTINNIESEDAAYYFCQQHDESPYTFGEGTKVEIKRDYKDDDDKGKPGSGKPGSGKPGSGKPGSYPYDVPDYAS	–	–	binds	binds	–
